# Source: patent US20220251176A1 (GREEN CROSS, published 2022)
# B1: recombinant human CD3 (receptor)
# chain: DGNEEMGGITQTPYKVSISGTTVILTCPQYPGSEILWQHNDKNIGGDEDDKNIGSDEDHLSLKEFSELEQSGYYVCYPRGSKPEDANFYLYLRARVCENCMEMD
# B2: anti-MSLN/anti-CD3 bispecific antibody HMI323/HMI323-A15 (bispecific antibody, human IgG1, kappa, lambda, L234A L235A)
# chain 1: DIQMTQSPSSLSASVGDRVTITCRASQDVSTAVAWYQQKPGKAPKLLIYSASYRYPGVPSRFSGSGSGTDFTLTISSLQPEDFATYYCQQHYSTPWTFGGGTKLEIKRTVAAPSVFIFPPSDEQLKSGTASVVCLLNNFYPREAKVQWKVDNALQSGNSQESVTEQDSKDSTYSLSSTLTLSKADYEKHKVYACEVTHQGLSSPVTKSFNRGECSGGGSGGGSEGGGSEGGGSEGGGSEGGGSGGGSGEVQLVQSGAEVKKPGTSVKVSCKASGYSFTSYFIQWVRQAPGQGLEWIGWIFPGSGNTKYSQKFQGRVTITRDTSTSTAYMELSSLRSEDTAVYYCARSGGYQYYFDYWGQGTLVTVSSASTKGPSVFPLAPSSKSTSGGTAALGCLVKDYFPEPVTVSWNSGALTSGVHTFPAVLQSSGLYSLSSVVTVPSSSLGTQTYICNVNHKPSNTKVDKKVGGGGSGGGGSGGGGSQAVVTQEPSLTVSPGGTVTLTCRSSTGAVTTSNYANWVQQKPGQAPRGLIGGTNKRAPWTPARFSGSLLGGKAALTLSGAQPEDEAEYYCALWYSNLWVFGGGTKLTVLGQPKANPTVTLFPPSSEELQANKATLVCLISDFYPGAVTVAWKADGSPVKAGVETTKPSKQSNNKYAASSYLSLTPEQWKSHRSYSCQVTHEGSTVEKTVAPTECSGGGSGGGSEGGGSEGGGSEGGGSEGGGSGGGSGEVQLVESGGGLVQPGGSLKLSCAASGFTFNTYAMNWVRQASGKGLEWVGRIRSKYNNYATYYADSVKDRFTISRDDSKNTAYLQMNSLKTEDTAVYYCVRHGNFGNSYVSWFAYWGQGTLVTVSSASTKGPSVFPLAPSSKSTSGGTAALGCLVKDYFPEPVTVSWNSGALTSGVHTFPAVLQSSGLYSLSSVVTVPSSSLGTQTYICNVNHKPSNTKVDKKVEPKSCDKTHTCPPCPAPEAAGGPSVFLFPPKPKDTLMISRTPEVTCVVVDVSHEDPEVKFNWYVDGVEVHNAKTKPREEQYNSTYRVVSVLTVLHQDWLNGKEYKCKVSNKALPAPIEKTISKAKGQPREPRVYTLPPCRDELTKNQVSLTCLVKGFYPSDIAVEWESNGQPENNYKTTPPVLVSDGSFTLYSKLTVDKSRWQQGNVFSCSVMHEALHNHYTQKSLSLSPG
# chain 2: DIQMTQSPSSLSASVGDRVTITCRASQDVSTAVAWYQQKPGKAPKLLIYSASYRYPGVPSRFSGSGSGTDFTLTISSLQPEDFATYYCQQHYSTPWTFGGGTKLEIKRTVAAPSVFIFPPSDEQLKSGTASVVCLLNNFYPREAKVQWKVDNALQSGNSQESVTEQDSKDSTYSLSSTLTLSKADYEKHKVYACEVTHQGLSSPVTKSFNRGECSGGGSGGGSEGGGSEGGGSEGGGSEGGGSGGGSGEVQLVQSGAEVKKPGTSVKVSCKASGYSFTSYFIQWVRQAPGQGLEWIGWIFPGSGNTKYSQKFQGRVTITRDTSTSTAYMELSSLRSEDTAVYYCARSGGYQYYFDYWGQGTLVTVSSASTKGPSVFPLAPSSKSTSGGTAALGCLVKDYFPEPVTVSWNSGALTSGVHTFPAVLQSSGLYSLSSVVTVPSSSLGTQTYICNVNHKPSNTKVDKKVEPKSCDKTHTCPPCPAPEAAGGPSVFLFPPKPKDTLMISRTPEVTCVVVDVSHEDPEVKFNWYVDGVEVHNAKTKPREEQYNSTYRVVSVLTVLHQDWLNGKEYKCKVSNKALPAPIEKTISKAKGQPREPQVCTLPPSRDELTENQVSLTCLVKGFYPSDIAVEWESNGQPENNYKTTPPVLDSDGSFFLYSWLTVDKSRWQQGNVFSCSVMHEALHNHYTQKSLSLSPG
# notes: Knob-into-hole heterodimer of two single chains, 2+1 IgG format
# Tests used:
# [1] = target: T1, anti-EGFR/anti-MSLN/anti-CD3 trispecific antibody Cetuximab/HMI323-A15; experiment: BLI (Octet), antigen immobilised on APS sensor, antibody 6.25-100 nM
# T1 construct: Trispecific antibody: knob-into-hole heterodimer of two single chains, 2+1 IgG format
# recombinant human MSLN = target: T2, recombinant human MSLN (human, UniProt Q13421 296-580, limits assumed); experiment: as above
# T2 construct: Immobilised on an APS sensor in the Octet assay; also called mesothelin
# T2 sequence (Q13421 other isoform, or with tags, fused parts or gaps limits assumed): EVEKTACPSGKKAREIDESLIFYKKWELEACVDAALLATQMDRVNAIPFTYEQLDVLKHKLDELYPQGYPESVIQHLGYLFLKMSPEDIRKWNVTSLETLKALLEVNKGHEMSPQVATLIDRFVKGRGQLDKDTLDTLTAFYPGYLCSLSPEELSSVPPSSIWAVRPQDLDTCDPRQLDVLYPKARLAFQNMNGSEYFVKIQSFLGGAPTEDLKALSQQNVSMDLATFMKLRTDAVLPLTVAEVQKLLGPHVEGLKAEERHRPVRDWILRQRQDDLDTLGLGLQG
# [2] = target: T3, MSLN on H226 and AsPC-1 cancer cell lines (UniProt Q13421 296-598); experiment: flow cytometry on H226 cells (overexpress MSLN and EGFR), PE anti-human IgG
# T3 construct: whole, on cells; The same cells also overexpress EGFR; also called MSLN-expressing tumor cells; MSLN+ tumor cells
# T3 sequence (Q13421 other isoform, or with tags, fused parts or gaps limits assumed): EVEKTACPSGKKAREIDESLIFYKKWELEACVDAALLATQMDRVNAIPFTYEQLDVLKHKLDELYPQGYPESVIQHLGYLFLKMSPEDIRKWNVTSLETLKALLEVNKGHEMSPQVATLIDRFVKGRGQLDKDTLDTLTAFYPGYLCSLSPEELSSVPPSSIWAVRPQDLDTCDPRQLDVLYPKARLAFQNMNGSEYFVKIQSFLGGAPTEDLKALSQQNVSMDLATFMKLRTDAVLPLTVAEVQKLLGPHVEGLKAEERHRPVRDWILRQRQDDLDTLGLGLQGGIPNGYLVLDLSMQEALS
# Description: (§1) Then, light was blocked for one and a half hours and incubation was performed at 4° C. Subsequently, 200 μl of FACS buffer was added thereto. Centrifugation was performed at 2,000 rpm for 3 minutes at 4° C., and then the supernatant was removed.
# (§2) Then, light was blocked for 30 minutes and incubation was performed at 4° C. Subsequently, 200 μl of FACS buffer was added thereto, and centrifugation was performed at 2,000 rpm for 3 minutes at 4° C.; and then the supernatant was removed to obtain a sample.
# (§3) 200 μl of BD CYTOFIX™ was added to the sample so that the cells were suspended, and analysis was performed by BD LSR FORTESSA™.
# [3] = target: T4, CD3 on Jurkat E6-1 T cell line (UniProt P07766 23-207); experiment: flow cytometry on Jurkat E6-1 cells (express CD3), PE anti-human IgG
# T4 construct: whole, on cells; On the cells CD3 is the whole complex
# Description: as §1, §2, §3
# recombinant human CD3 = target: B1; experiment: BLI (Octet), antigen immobilised on APS sensor, antibody 6.25-100 nM
# [4] = target: T3, MSLN on H226 and AsPC-1 cancer cell …; experiment: flow cytometry on AsPC-1 cells (overexpress MSLN and EGFR), PE anti-human IgG
# Description: as §1, §2, §3
# [5] = target: T3, MSLN on H226 and AsPC-1 cancer cell …; experiment: cell-based or functional assay
Kd [1],koff [1],kon [1],Kd (recombinant human MSLN),koff (recombinant human MSLN),kon (recombinant human MSLN),EC50 [2],EC50 [3],Kd (recombinant human CD3),koff (recombinant human CD3),kon (recombinant human CD3),EC50 [4],Binder,IC50 of PBMC-mediated cell killing; AsPC-1; PBMC:target cell 10:1; 24 hr [5],IC50 of PBMC-mediated cell killing; AsPC-1; PBMC:target cell 10:1; 48 hr [5],IC50 of PBMC-mediated cell killing; AsPC-1; PBMC:target cell 20:1; 48 hr [5],IC50 of PBMC-mediated cell killing; H226; PBMC:target cell 10:1; 24 hr [5],IC50 of PBMC-mediated cell killing; H226; PBMC:target cell 10:1; 48 hr [5],IC50 of PBMC-mediated cell killing; H226; PBMC:target cell 20:1; 48 hr [5]
13.5 nM,0.00625 s⁻¹,463000 M⁻¹ s⁻¹,–,–,–,–,–,–,–,–,–,B1,–,–,–,–,–,–
–,–,–,7.79 nM,0.000774 s⁻¹,99400 M⁻¹ s⁻¹,6.2 nM,58 nM,52.6 nM,0.0242 s⁻¹,461000 M⁻¹ s⁻¹,4.7 nM,B2,0.406 nM,0.144 nM,0.0304 nM,0.0844 nM,0.0503 nM,0.0153 nM
